Laboratory results taken from patent US11833164B2, “Methods of treating Fabry disease in patients having a mutation in the GLA gene” (Amicus Therapeutics, Inc., priority 2019, dated 2023).
Residue numbers refer to the chain shown, from its start. Names may count otherwise.

B1: V351E (protein)
chain: MQLRNPELHLGCALALRFLALVSWDIPGARALDNGLARTPTMGWLHWERFMCNLDCQEEPDSCISEKLFMEMAELMVSEGWKDAGYEYLCIDDCWMAPQRDSEGRLQADPQRFPHGIRQLANYVHSKGLKLGIYADVGNKTCAGFPGSFGYYDIDAQTFADWGVDLLKFDGCYCDSLENLADGYKHMSLALNRTGRSIVYSCEWPLYMWPFQKPNYTEIRQYCNHWRNFADIDDSWKSIKSILDWTSFNQERIVDVAGPGGWNDPDMLVIGNFGLSWNQQVTQMALWAIMAAPLFMSNDLRHISPQAKALLQDKDVIAINQDPLGKQGYQLRQGDNFEVWERPLSGLAWAEAMINRQEIGGPRSYTIAVASLGKGVACNPACFITQLLPVKRKLGFYEWTSRLRSHINPTGTVLLQLENTMQMSLKDLL
B2: L344V (protein)
chain: B1 chain with L344V, E351V
B3: G346A (protein)
chain: B1 chain with G346A, E351V
B4: A352T (protein)
chain: B1 chain with E351V, A352T
B5: A350V (protein)
chain: B1 chain with A350V, E351V
B6: V351A (protein)
chain: B1 chain with E351A
B7: L347I (protein)
chain: B1 chain with L347I, E351V
B8: G346D (protein)
chain: B1 chain with G346D, E351V
B9: W349C (protein)
chain: B1 chain with W349C, E351V
B10: A348D (protein)
chain: B1 chain with A348D, E351V
B11: A350G (protein)
chain: B1 chain with A350G, E351V

Tested on: mutant form of α-Gal A expressed in HEK-293 cells
Test: HEK assay (GLP HEK / Migalastat Amenability Assay): α-Gal A activity in lysates of transiently transfected HEK-293 cells incubated with or without 10 μM migalastat
Assay type: cell-based, human
Conditions: 10 μM migalastat versus baseline
Summary of the method: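 HEK-293 cells transiently transfected with mutant α-Gal A and incubated with or without 10 μM migalastat; lysate activity given as nmol free 4-MU released per mg protein per hour. Values are mean±SEM.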

| Molecule | Absolute increase (% WT) | Relative increase |
| --- | --- | --- |
| B1 | 7.2 | 1.7 |
| B2 | 16.8 | 1.4 |
| B3 | 22.0 | 1.4 |
| B4 | 31.0 | 1.9 |
| B5 | 22.3 | 1.8 |
| B6 | 14.2 | 1.3 |
| B7 | 17.4 | 1.3 |
| B8 | 35.8 | 1.5 |
| B9 | 12.3 | 1.3 |
| B10 | 8.4 | 1.2 |
| B11 | 9.5 | 1.2 |

Same assay, conditions: absence of migalastat; percentage of baseline wild-type α-Gal A activity; mean ± SEM

| Molecule | Baseline α-Gal A activity (% WT) |
| --- | --- |
| B1 | 10.5 ± 0.5 |
| B2 | 40.6 ± 3.2 |
| B3 | 58.3 ± 3.3 |
| B4 | 37.2 ± 2.1 |
| B5 | 27.9 ± 0.9 |
| B6 | 56.9 ± 4.7 |
| B7 | 65 ± 3.8 |
| B8 | 67.5 ± 6.4 |
| B9 | 41.5 ± 2.6 |
| B10 | 41.6 ± 1.5 |
| B11 | 41 ± 0.9 |

Same assay, conditions: lysates of HEK-293 cells transiently transfected with the mutant form, incubated 5 days in absence of migalastat; mean ± SEM

| Molecule | Baseline α-Gal A activity [nmol/mg/h] |
| --- | --- |
| B1 | 4760 ± 281 |
| B2 | 13586 ± 1026 |
| B3 | 23263 ± 1479 |
| B4 | 15803 ± 777 |
| B5 | 12786 ± 654 |
| B6 | 24009 ± 1662 |
| B7 | 26815 ± 2533 |
| B8 | 31327 ± 3822 |
| B9 | 17800 ± 1182 |
| B10 | 21682 ± 817 |
| B11 | 21459 ± 695 |

Same assay, conditions: lysates of HEK-293 cells transiently transfected with the mutant form, incubated 5 days with 10 μM migalastat; mean ± SEM

| Molecule | 10 μM migalastat α-Gal A activity [nmol/mg/h] |
| --- | --- |
| B1 | 7910 ± 348 |
| B2 | 19262 ± 903 |
| B3 | 31948 ± 1306 |
| B4 | 29351 ± 1532 |
| B5 | 22855 ± 1012 |
| B6 | 30218 ± 1531 |
| B7 | 33517 ± 2802 |
| B8 | 46560 ± 3904 |
| B9 | 23210 ± 1299 |
| B10 | 26025 ± 1129 |
| B11 | 26360 ± 1002 |

Same assay, conditions: with 10 μM migalastat, 5 days; percentage of baseline wild-type α-Gal A activity; mean ± SEM

| Molecule | 10 μM migalastat α-Gal A activity (% WT) |
| --- | --- |
| B1 | 17.7 ± 1 |
| B2 | 57.5 ± 2.5 |
| B3 | 80.4 ± 2.8 |
| B4 | 68.2 ± 3.2 |
| B5 | 50.2 ± 1.6 |
| B6 | 71.1 ± 4.1 |
| B7 | 82.4 ± 5 |
| B8 | 103.3 ± 6 |
| B9 | 53.7 ± 2.5 |
| B10 | 50 ± 2.2 |
| B11 | 50.5 ± 1.7 |
